# According to patent US20240101668A1 (WUGEN, published 2024):
# What was measured:
# [1] = biological target: T1, huCD33-G69 stably expressed on Jurkat cells (human, UniProt P20138 18-364); assay: FACS on cells;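 note: fixed Jurkat cells bearing either CD33 variant, barcoded by dye, exposed to myc-tagged scFv periplasmic extracts, detected with anti-myc PE antibody and read by flow cytometry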
# T1 construct: whole, on cells; >200,000 receptors per cell; also called CD33 Mutant; CD33 R69G
# Procedure: (§1) Jurkat cells were engineered to stably express either the huCD33-R69 or huCD33-G69 variant at >200,000 receptors per cell. Parental, huCD33-R69, and huCD33-G69 Jurkat cell lines were stained with differing levels of CellTrace Violet Cell Proliferation Kit (ThermoFisher, cat. #C34557) to barcode each cell line. Barcoded Jurkat cell lines were fixed with paraformaldehyde and incubated with myc-labeled scFv periplasmic extracts and a secondary anti-myc PE-conjugated monoclonal antibody. Appropriate positive and negative controls were used. Stained cells were analyzed by flow cytometry (CytoFLEX, Beckman Coulter, Inc.) and binding was assessed by change in PE mean fluorescence intensity (MFI) of the barcoded cell populations.
# [2] = biological target: T2, huCD33-R69 stably expressed on Jurkat cells (human, UniProt P20138 18-364); assay: FACS on cells;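 note: fixed Jurkat cells bearing either CD33 variant, barcoded by dye, exposed to myc-tagged scFv periplasmic extracts, detected with anti-myc PE antibody and read by flow cytometry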
# T2 construct: whole, on cells; >200,000 receptors per cell; also called CD33 WT; CD33^ARG69
# Procedure: as §1
# [3] = biological target: T3, huCD33-R69-His recombinant protein (human, UniProt P20138 18-259); assay: BLI
# T3 construct: extracellular domain
# Procedure: (§2) Discovered scFvs were analyzed for binding to huCD33-R69-His or huCD33-G69-Fc recombinant proteins (for anti-CD33 scFvs; for CLL-1 scFvs, huCLL1-K244-Avi-Tev-His or huCLL1-Q244-Avi-Tev-His were used; for FLT3, huFLT3-T227-His or huFLT3-M227-Fc were used) using BLI on a ForteBio Octet HTX instrument. Streptavidin-coated biosensors were loaded with biotinylated anti-V5 tag monoclonal antibody for 5 min and were then quenched and blocked with 20 μM amine-PEG2-Biotin for 5 min. scFvs were captured on biosensors from scFv clone periplasmic extracts. huCD33 (or huCLL-1, or huFLT3) proteins were then associated with the captured scFvs for 2 minutes, followed by dissociation with buffer (1×HBST [10 mM HEPES pH 7.4, 150 mM NaCl, 0.05% Tween-20], 1 g/L BSA) for 5 minutes. […] Data was fitted with 1:1 Langmuir equation and off-rate values were reported.
# [4] = biological target: T4, huCD33-G69-Fc recombinant protein (human, UniProt P20138 18-259); assay: BLI
# T4 construct: extracellular domain; also called CD33 R69G
# Procedure: as §2
# 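Throughout, for result: scFvs from periplasmic extracts captured on biosensors via anti-V5 antibody, exposed to recombinant huCD33 variants for 2 min, 5 min dissociation, scored as binding, no binding or ambiguous.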
# T4 sequence (P20138 18-259 R69G): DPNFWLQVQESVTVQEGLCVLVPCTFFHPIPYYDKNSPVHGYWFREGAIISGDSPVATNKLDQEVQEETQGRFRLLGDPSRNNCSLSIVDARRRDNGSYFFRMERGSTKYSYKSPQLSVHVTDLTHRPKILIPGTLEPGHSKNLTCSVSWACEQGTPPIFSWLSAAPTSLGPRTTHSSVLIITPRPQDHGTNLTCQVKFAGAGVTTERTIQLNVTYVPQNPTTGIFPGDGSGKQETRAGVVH
# T2 sequence (P20138 18-364): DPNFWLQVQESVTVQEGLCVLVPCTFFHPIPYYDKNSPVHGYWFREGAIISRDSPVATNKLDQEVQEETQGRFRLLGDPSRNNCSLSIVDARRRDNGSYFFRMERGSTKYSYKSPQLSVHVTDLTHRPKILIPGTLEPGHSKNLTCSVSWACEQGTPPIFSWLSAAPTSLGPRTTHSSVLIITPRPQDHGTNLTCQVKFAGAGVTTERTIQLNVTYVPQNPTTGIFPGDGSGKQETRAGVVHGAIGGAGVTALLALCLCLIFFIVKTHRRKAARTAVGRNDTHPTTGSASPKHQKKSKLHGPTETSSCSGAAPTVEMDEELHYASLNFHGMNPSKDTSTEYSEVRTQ
# T3 sequence (P20138 18-259): as the sequence (P20138 18-259 R69G) above, with G52R counted along it
# T1 sequence (P20138 18-364 R69G): as the sequence (P20138 18-364) above, with R52G counted along it
geometric mean MFI fold change over Jurkat parental [1],geometric mean MFI fold change over Jurkat parental [2],binding result [3],binding result [4],Binder
10 to 30 fold,< 2 fold,no binding,binds,"Polypeptide No. 32 (scFv, V domains shown, scFv) VH: EVQLLESGGGLVQPGGSLRLSCAASGFTFSSYGMHWVRQAPGKGLEWVSSISGSGDTTYYADSVKGRFTISRDNSKNTLYLQMNSLRAEDTAVYYCARDNPYGDYGGSFDYWGQGTLVTVSS VL: EIVMTQSPATLSVSPGERATLSCRASQSVSSSYLAWYQQKPGQAPRLLIYATSTRATGIPARFSGSGSGTEFTLTISSLQSEDFAVYYCQQYGSLPLTFGQGTKVEIKR"
> 30 fold,< 2 fold,no binding,binds,"Polypeptide No. 33 (scFv, V domains shown, scFv) VH: QVQLVQSGAEVKKPGASVKVSCKASGYTFTSYYMHWVRQAPGQGLEWMGIIDPSGGSTNYAQKFQGRVTMTRDTSTSTVYMELSSLRSEDTAVYYCARDYYGSGSYYGLDYWGRGTLVTVSS VL: DIQMTQSPSSLSASVGDRVTITCRASQGISNNLNWYQQKPGKAPKLLIYDASNLETGVPSRFSGSGSGTDFTLTISSLQPEDFATYYCQQANSFPLTFGPGTKVDIKR"
10 to 30 fold,< 2 fold,no binding,binds,"Polypeptide No. 40 (scFv, V domains shown, scFv) VH: QVQLVQSGAEVKKPGASVKVSCKASGYTFTDYHMHWVRQAPGQGLEWMGWMSPNSGNTGYAQNFQGRVTMTRDTSTSTVYMELSSLRSEDTAVYYCARADYYGSDYVKFDYWGQGTLVTVSS VL: DIQMTQSPSSLSASVGDRVTITCRVSQGISSYLNWYQQKPGKAPKLLIYEASTLESGVPSRFSGSGSGTDFTLTISSLQPEDFATYYCQQGYSTPPTFGQGTKVEIKR"

# Continued, binder first:
Binder,geometric mean MFI fold change over Jurkat parental [1],geometric mean MFI fold change over Jurkat parental [2],binding result [3],binding result [4]
"Polypeptide No. 39 (scFv, V domains shown, scFv) VH: EVQLLESGGGLVQPGGSLRLSCAASGFTFRNYGMGWVRQAPGKGLEWVSAISGSGGSTYYADSVKGRFTISRDNSKNTLYLQMNSLRAEDTAVYYCARVKFYGMDVWGQGTTVTVSS VL: DIQMTQSPSSLSASVGDRVTITCRASQGISNDLAWYQQKPGKAPKLLIYGASNLETGVPSRFSGSGSGTDFTLTISSLQPEDFATYYCQQANSFPFTFGPGTKVDIKR",10 to 30 fold,< 2 fold,no binding,binds
"Polypeptide No. 35 (scFv, V domains shown, scFv) VH: QVQLVQSGAEVKKPGASVKVSCKASGYTFTDYYMHWVRQAPGQGLEWMGIINPSGGSTRYAQKFQGRVTMTRDTSTSTVYMELSSLRSEDTAVYYCARVDGRRWLRSDYWGQGTLVTVSS VL: DIQMTQSPSSLSASVGDRVTITCRASQGIRNDLAWYQQKPGKAPKLLIYAASTLQNGVPSRFSGSGSGTDFTLTISSLQPEDFATYYCQQSYSTPWTFGQGTKVEIKR",2 to 10 fold,< 2 fold,no binding,binds
"Polypeptide No. 42 (scFv, V domains shown, scFv) VH: QVQLVQSGAEVKKPGASVKVSCKASGYTFTDYFMHWVRQAPGQGLEWMGWINPNSGNTGYAQKFQGRVTMTRDTSTSTVYMELSSLRSEDTAVYYCARLNDYGDYGGPATLDYWGQGTLVTVSS VL: DIQMTQSPSSLSASVGDRVTITCRASQGISNNLNWYQQKPGKAPKLLIYAASSLQSGVPSRFSGSGSGTDFTLTISSLQPEDFATYYCQQSYSTPPTFGQGTKLEIKR",10 to 30 fold,< 2 fold,no binding,binds
"Polypeptide No. 36 (scFv, V domains shown, scFv) VH: QVQLVQSGAEVKKPGASVKVSCKASGGTFSSYAISWVRQAPGQGLEWLGIISPSGRSAGYGRKFQGRVTMTRDTSTSTVYMELSSLRSEDTAVYYCARTDYGGHKWYFDLWGRGTLVTVSS VL: DIQMTQSPSSLSASVGDRVTITCQASQGINNYLNWYQQKPGKAPKLLIYAASTLQRGVPSRFSGSGSGTDFTLTISSLQPEDFATYYCQQSYQTPLTFGGGTKVEIKR",2 to 10 fold,< 2 fold,no binding,binds
"Polypeptide No. 41 (scFv, V domains shown, scFv) VH: QVQLVQSGAEVKKPGASVKVSCKASGYTFPNYGISWVRQAPGQGLEWMGWINPNSGGTKYAQRFQGRVTMTRDTSTSTVYMELSSLRSEDTAVYYCARDRDILTGYYHFDYWGQGTLVTVSS VL: not shown",2 to 10 fold,< 2 fold,no binding,binds
